Blank lines part the entries; values can stand above or below the molecule they belong to.
Experiments:
Sll0067 GST [1] = target: T1, Sll0067 GST (Synechocystis sp. PCC 6803, UniProt Q55139); experiment: absorbance at […] nm, GSH conjugation, Michaelis-Menten fit; assay type: biochemical; conditions: 1 mM GSH; 30 mM Tris-HCl pH 8.0, 1 mM EDTA; 25°C; read-out: affinity (apparent Km)
T1 sequence (Q55139 1-184): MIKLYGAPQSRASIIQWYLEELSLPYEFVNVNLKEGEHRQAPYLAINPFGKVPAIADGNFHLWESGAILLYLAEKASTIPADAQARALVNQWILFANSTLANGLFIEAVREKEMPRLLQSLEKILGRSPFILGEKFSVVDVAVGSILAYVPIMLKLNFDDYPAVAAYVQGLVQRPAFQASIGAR

Sll0067 GST [2] = target: T1, Sll0067 GST; experiment: initial velocity of GSH-MG conjugation with added S-lactoylGSH; assay type: biochemical; conditions: activator; co-substrates GSH and MG
[3] = target: Sll0067 glutathione transferase (GST) of Synechocystis sp. strain PCC 6803, His-tagged recombinant protein (Synechocystis sp. strain PCC 6803); experiment: SEC-MALS; 300 ug of purified protein in 300 ul injected at 0.5 ml/min on an analytical Superdex 200 10/300 column, 30 mM Tris-HCl pH 8.0, 200 mM NaCl; miniDAWN TREOS detector and T-rEX refractometer
[4] = substrate: CC(=O)C=O; experiment: two-substrate steady-state kinetics, remaining MG by DDP fluorescence; secondary plot, allosteric sigmoidal fit; assay type: biochemical, Synechocystis sp. PCC 6803; conditions: varied GSH, 100 mM potassium phosphate, 1 mM EDTA, pH 7.5, 30°C, Hill number 1.873 ± 0.261
Excerpt: two-substrate steady-state kinetics, remaining MG by DDP fluorescence; secondary plot, allosteric sigmoidal fit on Sll0067 GST

purified protein [5] = substrate: S=C=NCCc1ccccc1; experiment: purified protein; assay type: biochemical, Synechocystis sp. PCC 6803; conditions: 1 mM GSH, 100 mM phosphate pH 6.5, 25°C
purified protein [6] = substrate: S=C=NCc1ccccc1; experiment: purified protein; assay type: biochemical, Synechocystis sp. PCC 6803; conditions: 1 mM GSH, 100 mM phosphate pH 6.5, 25°C

Molecule: O=[N+]([O-])c1ccc(Cl)c([N+](=O)[O-])c1 [1-chloro-2,4-dinitrobenzene]
Km (Sll0067 GST [1]): 3800 µM

Molecule: C[C@@H](O)C(=O)SC[C@H](NC(=O)CC[C@H](N)C(=O)O)C(=O)NCC(=O)O [S-D-lactoylglutathione]
initial velocity of GSH-MG conjugation with added S-lactoylGSH (Sll0067 GST [2]): All measured initial velocities of Sll0067 activity were increased by S-lactoylGSH

stoichiometry N [3]: 2
Molecule: Sll0067 glutathione transferase (GST) of Synechocystis sp. strain PCC 6803, His-tagged recombinant protein (enzyme)

B1: Sll0067 GST (Synechocystis sp. PCC 6803 substr. Kazusa) (protein)
chain: MIKLYGAPQSRASIIQWYLEELSLPYEFVNVNLKEGEHRQAPYLAINPFGKVPAIADGNFHLWESGAILLYLAEKASTIPADAQARALVNQWILFANSTLANGLFIEAVREKEMPRLLQSLEKILGRSPFILGEKFSVVDVAVGSILAYVPIMLKLNFDDYPAVAAYVQGLVQRPAFQASIGAR
K0.5 [4]: 221.7 ± 26.3 µM | Km (purified protein [5]): 31.4 µM | Km (purified protein [6]): 82.0 µM
